Patent US20190338009A1 (ZEALAND PHARMA A S, published 2019)
Square brackets hold non-standard residues; d marks the D form. Aib = CC(C)(N)C(=O)O

T1: human GLP-2 receptor (hGLP2-R) (human, UniProt O95838 1-553)
T1 sequence (looked up): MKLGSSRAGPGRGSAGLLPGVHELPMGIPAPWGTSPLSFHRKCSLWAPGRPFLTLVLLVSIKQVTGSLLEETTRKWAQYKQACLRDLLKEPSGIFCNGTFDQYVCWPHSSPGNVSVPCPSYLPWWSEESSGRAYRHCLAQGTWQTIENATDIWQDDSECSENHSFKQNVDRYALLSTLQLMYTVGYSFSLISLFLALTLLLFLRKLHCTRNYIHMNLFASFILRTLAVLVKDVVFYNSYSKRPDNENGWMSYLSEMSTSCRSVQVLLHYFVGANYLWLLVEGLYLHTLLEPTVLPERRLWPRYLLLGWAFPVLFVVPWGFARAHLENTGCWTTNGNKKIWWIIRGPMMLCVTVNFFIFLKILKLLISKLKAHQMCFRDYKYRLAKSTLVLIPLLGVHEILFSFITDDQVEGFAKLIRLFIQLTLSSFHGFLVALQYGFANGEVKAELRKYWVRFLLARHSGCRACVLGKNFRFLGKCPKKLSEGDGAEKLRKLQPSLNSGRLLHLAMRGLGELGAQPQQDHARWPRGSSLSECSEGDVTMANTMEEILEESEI


How the values were obtained:
[1] = target: human glucagon-like peptide 1 receptor (GLP-1R) (human, UniProt P43220 24-463); assay: cell-based or functional assay
[2] = target: T1, human GLP-2 receptor (hGLP2-R); assay: cell-based or functional assay

Binder | EC50 GLP-1 (nM); cAMP AlphaScreen, HEK293 cells expressing human GLP-1R [1] [nM] | EC50 GLP-2 (nM); cAMP AlphaScreen, HEK293 cells expressing human GLP-2R [2] [nM]
H-H[Aib]EGTFTDELATILDEQAARDFIAWLQAQKITD-OH (SMILES CC[C@H](C)[C@H](NC(=O)[C@H](Cc1ccccc1)NC(=O)[C@H](CC(=O)O)NC(=O)[C@H](CCCNC(=N)N)NC(=O)[C@H](C)NC(=O)[C@H](C)NC(=O)[C@H](CCC(N)=O)NC(=O)[C@H](CCC(=O)O)NC(=O)[C@H](CC(=O)O)NC(=O)[C@H](CC(C)C)NC(=O)[C@@H](NC(=O)[C@@H](NC(=O)[C@H](C)NC(=O)[C@H](CC(C)C)NC(=O)[C@H](CCC(=O)O)NC(=O)[C@H](CC(=O)O)NC(=O)[C@@H](NC(=O)[C@H](Cc1ccccc1)NC(=O)[C@@H](NC(=O)CNC(=O)[C@H](CCC(=O)O)NC(=O)C(C)(C)NC(=O)[C@@H](N)Cc1c[nH]cn1)[C@@H](C)O)[C@@H](C)O)[C@@H](C)O)[C@@H](C)CC)C(=O)N[C@@H](C)C(=O)N[C@@H](Cc1c[nH]c2ccccc12)C(=O)N[C@@H](CC(C)C)C(=O)N[C@@H](CCC(N)=O)C(=O)N[C@@H](C)C(=O)N[C@@H](CCC(N)=O)C(=O)N[C@@H](CCCCN)C(=O)N[C@H](C(=O)N[C@H](C(=O)N[C@@H](CC(=O)O)C(=O)O)[C@@H](C)O)[C@@H](C)CC) [Compound 29] | 0.044 | 0.11
H-H[Aib]EGSFTSELATILDEQAARDFIAWLIAHKITD-OH (SMILES CC[C@H](C)[C@H](NC(=O)[C@H](CC(C)C)NC(=O)[C@H](Cc1c[nH]c2ccccc12)NC(=O)[C@H](C)NC(=O)[C@@H](NC(=O)[C@H](Cc1ccccc1)NC(=O)[C@H](CC(=O)O)NC(=O)[C@H](CCCNC(=N)N)NC(=O)[C@H](C)NC(=O)[C@H](C)NC(=O)[C@H](CCC(N)=O)NC(=O)[C@H](CCC(=O)O)NC(=O)[C@H](CC(=O)O)NC(=O)[C@H](CC(C)C)NC(=O)[C@@H](NC(=O)[C@@H](NC(=O)[C@H](C)NC(=O)[C@H](CC(C)C)NC(=O)[C@H](CCC(=O)O)NC(=O)[C@H](CO)NC(=O)[C@@H](NC(=O)[C@H](Cc1ccccc1)NC(=O)[C@H](CO)NC(=O)CNC(=O)[C@H](CCC(=O)O)NC(=O)C(C)(C)NC(=O)[C@@H](N)Cc1c[nH]cn1)[C@@H](C)O)[C@@H](C)O)[C@@H](C)CC)[C@@H](C)CC)C(=O)N[C@@H](C)C(=O)N[C@@H](Cc1c[nH]cn1)C(=O)N[C@@H](CCCCN)C(=O)N[C@H](C(=O)N[C@H](C(=O)N[C@@H](CC(=O)O)C(=O)O)[C@@H](C)O)[C@@H](C)CC) [Compound 1] | 0.014 | 0.036
H-H[Aib]EGTFTSELATILDEQAARDFIAWLQAQKITD-OH (SMILES CC[C@H](C)[C@H](NC(=O)[C@H](Cc1ccccc1)NC(=O)[C@H](CC(=O)O)NC(=O)[C@H](CCCNC(=N)N)NC(=O)[C@H](C)NC(=O)[C@H](C)NC(=O)[C@H](CCC(N)=O)NC(=O)[C@H](CCC(=O)O)NC(=O)[C@H](CC(=O)O)NC(=O)[C@H](CC(C)C)NC(=O)[C@@H](NC(=O)[C@@H](NC(=O)[C@H](C)NC(=O)[C@H](CC(C)C)NC(=O)[C@H](CCC(=O)O)NC(=O)[C@H](CO)NC(=O)[C@@H](NC(=O)[C@H](Cc1ccccc1)NC(=O)[C@@H](NC(=O)CNC(=O)[C@H](CCC(=O)O)NC(=O)C(C)(C)NC(=O)[C@@H](N)Cc1c[nH]cn1)[C@@H](C)O)[C@@H](C)O)[C@@H](C)O)[C@@H](C)CC)C(=O)N[C@@H](C)C(=O)N[C@@H](Cc1c[nH]c2ccccc12)C(=O)N[C@@H](CC(C)C)C(=O)N[C@@H](CCC(N)=O)C(=O)N[C@@H](C)C(=O)N[C@@H](CCC(N)=O)C(=O)N[C@@H](CCCCN)C(=O)N[C@H](C(=O)N[C@H](C(=O)N[C@@H](CC(=O)O)C(=O)O)[C@@H](C)O)[C@@H](C)CC) [Compound 26] | 0.013 | 0.19
H-H[Aib]EGSFTSELATILDEQAARDFIAWLYAHKITD-OH (SMILES CC[C@H](C)[C@H](NC(=O)[C@H](Cc1ccccc1)NC(=O)[C@H](CC(=O)O)NC(=O)[C@H](CCCNC(=N)N)NC(=O)[C@H](C)NC(=O)[C@H](C)NC(=O)[C@H](CCC(N)=O)NC(=O)[C@H](CCC(=O)O)NC(=O)[C@H](CC(=O)O)NC(=O)[C@H](CC(C)C)NC(=O)[C@@H](NC(=O)[C@@H](NC(=O)[C@H](C)NC(=O)[C@H](CC(C)C)NC(=O)[C@H](CCC(=O)O)NC(=O)[C@H](CO)NC(=O)[C@@H](NC(=O)[C@H](Cc1ccccc1)NC(=O)[C@H](CO)NC(=O)CNC(=O)[C@H](CCC(=O)O)NC(=O)C(C)(C)NC(=O)[C@@H](N)Cc1c[nH]cn1)[C@@H](C)O)[C@@H](C)O)[C@@H](C)CC)C(=O)N[C@@H](C)C(=O)N[C@@H](Cc1c[nH]c2ccccc12)C(=O)N[C@@H](CC(C)C)C(=O)N[C@@H](Cc1ccc(O)cc1)C(=O)N[C@@H](C)C(=O)N[C@@H](Cc1c[nH]cn1)C(=O)N[C@@H](CCCCN)C(=O)N[C@H](C(=O)N[C@H](C(=O)N[C@@H](CC(=O)O)C(=O)O)[C@@H](C)O)[C@@H](C)CC) [Compound 28] | 0.11 | 0.024

Now from value to binder:

EC50 GLP-1 (nM); cAMP AlphaScreen, HEK293 cells expressing human GLP-1R [1] [nM] | EC50 GLP-2 (nM); cAMP AlphaScreen, HEK293 cells expressing human GLP-2R [2] [nM] | Binder
0.008 | 0.062 | H-H[Aib]EGSFTSELATILDEQAARDFIAWLIAQKITD-OH (SMILES CC[C@H](C)[C@H](NC(=O)[C@H](CC(C)C)NC(=O)[C@H](Cc1c[nH]c2ccccc12)NC(=O)[C@H](C)NC(=O)[C@@H](NC(=O)[C@H](Cc1ccccc1)NC(=O)[C@H](CC(=O)O)NC(=O)[C@H](CCCNC(=N)N)NC(=O)[C@H](C)NC(=O)[C@H](C)NC(=O)[C@H](CCC(N)=O)NC(=O)[C@H](CCC(=O)O)NC(=O)[C@H](CC(=O)O)NC(=O)[C@H](CC(C)C)NC(=O)[C@@H](NC(=O)[C@@H](NC(=O)[C@H](C)NC(=O)[C@H](CC(C)C)NC(=O)[C@H](CCC(=O)O)NC(=O)[C@H](CO)NC(=O)[C@@H](NC(=O)[C@H](Cc1ccccc1)NC(=O)[C@H](CO)NC(=O)CNC(=O)[C@H](CCC(=O)O)NC(=O)C(C)(C)NC(=O)[C@@H](N)Cc1c[nH]cn1)[C@@H](C)O)[C@@H](C)O)[C@@H](C)CC)[C@@H](C)CC)C(=O)N[C@@H](C)C(=O)N[C@@H](CCC(N)=O)C(=O)N[C@@H](CCCCN)C(=O)N[C@H](C(=O)N[C@H](C(=O)N[C@@H](CC(=O)O)C(=O)O)[C@@H](C)O)[C@@H](C)CC) [Compound 25]
0.12 | 0.37 | H-H[Aib]EGTFTSELSTILDEQAARDFIAWLHAQKITD-OH (SMILES CC[C@H](C)[C@H](NC(=O)[C@H](Cc1ccccc1)NC(=O)[C@H](CC(=O)O)NC(=O)[C@H](CCCNC(=N)N)NC(=O)[C@H](C)NC(=O)[C@H](C)NC(=O)[C@H](CCC(N)=O)NC(=O)[C@H](CCC(=O)O)NC(=O)[C@H](CC(=O)O)NC(=O)[C@H](CC(C)C)NC(=O)[C@@H](NC(=O)[C@@H](NC(=O)[C@H](CO)NC(=O)[C@H](CC(C)C)NC(=O)[C@H](CCC(=O)O)NC(=O)[C@H](CO)NC(=O)[C@@H](NC(=O)[C@H](Cc1ccccc1)NC(=O)[C@@H](NC(=O)CNC(=O)[C@H](CCC(=O)O)NC(=O)C(C)(C)NC(=O)[C@@H](N)Cc1c[nH]cn1)[C@@H](C)O)[C@@H](C)O)[C@@H](C)O)[C@@H](C)CC)C(=O)N[C@@H](C)C(=O)N[C@@H](Cc1c[nH]c2ccccc12)C(=O)N[C@@H](CC(C)C)C(=O)N[C@@H](Cc1c[nH]cn1)C(=O)N[C@@H](C)C(=O)N[C@@H](CCC(N)=O)C(=O)N[C@@H](CCCCN)C(=O)N[C@H](C(=O)N[C@H](C(=O)N[C@@H](CC(=O)O)C(=O)O)[C@@H](C)O)[C@@H](C)CC) [Compound 27]
0.042 | 0.049 | H-H[Aib]EGSFTSELATILDEQAARDFIAWLQAHKITD-OH (SMILES CC[C@H](C)[C@H](NC(=O)[C@H](Cc1ccccc1)NC(=O)[C@H](CC(=O)O)NC(=O)[C@H](CCCNC(=N)N)NC(=O)[C@H](C)NC(=O)[C@H](C)NC(=O)[C@H](CCC(N)=O)NC(=O)[C@H](CCC(=O)O)NC(=O)[C@H](CC(=O)O)NC(=O)[C@H](CC(C)C)NC(=O)[C@@H](NC(=O)[C@@H](NC(=O)[C@H](C)NC(=O)[C@H](CC(C)C)NC(=O)[C@H](CCC(=O)O)NC(=O)[C@H](CO)NC(=O)[C@@H](NC(=O)[C@H](Cc1ccccc1)NC(=O)[C@H](CO)NC(=O)CNC(=O)[C@H](CCC(=O)O)NC(=O)C(C)(C)NC(=O)[C@@H](N)Cc1c[nH]cn1)[C@@H](C)O)[C@@H](C)O)[C@@H](C)CC)C(=O)N[C@@H](C)C(=O)N[C@@H](Cc1c[nH]c2ccccc12)C(=O)N[C@@H](CC(C)C)C(=O)N[C@@H](CCC(N)=O)C(=O)N[C@@H](C)C(=O)N[C@@H](Cc1c[nH]cn1)C(=O)N[C@@H](CCCCN)C(=O)N[C@H](C(=O)N[C@H](C(=O)N[C@@H](CC(=O)O)C(=O)O)[C@@H](C)O)[C@@H](C)CC) [Compound 24]
